Assay [1] addresses T1, ESO157 wild type peptide (…)/HLA-A*02:01 complex on cells (human).
T1 construct: also called ESO157-loaded T2 cells
Kind of assay: FACS, peptide-pulsed T2 cells.

Assay [2] deals with ESO157 A1 peptide (…)/HLA-A*02:01 complex on T2 cells (human). Kind of assay: FACS, peptide-pulsed T2 cells. On the technique in general: A flow cytometer gives signals particle by particle.
The target in assay [3] is ESO157 A3 peptide (…)/HLA-A*02:01 complex on T2 cells (human). The assay can be described thus: FACS, peptide-pulsed T2 cells.
The target in assay [4] is ESO157 A4 peptide (…)/HLA-A*02:01 complex on T2 cells (human). Kind of assay: FACS, peptide-pulsed T2 cells.
Assay [5] deals with ESO157 A5 peptide (…)/HLA-A*02:01 complex on T2 cells (human). The assay can be described thus: FACS, peptide-pulsed T2 cells.
Assay [6] addresses ESO157 A7 peptide (…)/HLA-A*02:01 complex on T2 cells (human). Kind of assay: FACS, peptide-pulsed T2 cells.
The target of assay [7] is T2, ESO157 homolog 2 peptide (…)/HLA-A*02:01 on T2 cells (human).
T2 construct: also called ESO157 H2
The assay can be described thus: FACS, phage on T2 cells, 50 ug/ml peptide.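 Further: binding of phage clones to peptide/MHC complexes detected by flow cytometry after staining with an anti-M13 antibody.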

Assay [8] deals with T3, ESO157 homolog 5 peptide (…)/HLA-A*02:01 on T2 cells (human).
T3 construct: also called ESO157 H5
The assay can be described thus: FACS, phage on T2 cells, 50 ug/ml peptide.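 Further: binding of phage clones to peptide/MHC complexes detected by flow cytometry after staining with an anti-M13 antibody.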

Assay [9] addresses T4, ESO157 homolog 1 peptide (…)/HLA-A*02:01 on T2 cells (human).
T4 construct: also called ESO157 H1
The assay can be described thus: FACS, phage on T2 cells, 50 ug/ml peptide.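 Further: binding of phage clones to peptide/MHC complexes detected by flow cytometry after staining with an anti-M13 antibody.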

The target of assay [10] is T5, ESO157 homolog 3 peptide (…)/HLA-A*02:01 on T2 cells (human).
T5 construct: also called ESO157 H3
Kind of assay: FACS, phage on T2 cells, 50 ug/ml peptide.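 Further: binding of phage clones to peptide/MHC complexes detected by flow cytometry after staining with an anti-M13 antibody.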

In assay [11] the target is T6, ESO157 homolog 4 peptide (…)/HLA-A*02:01 on T2 cells (human).
T6 construct: also called ESO157 H4
The assay can be described thus: FACS, phage on T2 cells, 50 ug/ml peptide.

Assay [12] deals with T7, HLA-A*02:01 on T2 cells without peptide loading (human).
T7 construct: TAP-deficient T2 cells, no peptide added; also called No peptide; T2 cells with no peptide loaded
Kind of assay: FACS, peptide-pulsed T2 cells.

Assay [13] concerns the target ESO157 A8 peptide (…)/HLA-A*02:01 complex on T2 cells (human). Kind of assay: FACS, peptide-pulsed T2 cells.
The next assay deals with T8, Bio-C9V mutant.
T8 construct: also called biotinylated ESO157 C9V/HLA-A*02:01 complex monomer
Kind of assay: phage ELISA: streptavidin plate coated with biotinylated peptide/HLA-A*02:01 monomer, phage detected with HRP-conjugated anti-M13 antibody, absorbance at 450 nm. On the technique in general: ELISA stands for enzyme-linked immunosorbent assay.

Assay [14] concerns the target biotinylated recombinant ESO157/HLA-A*02:02 complex (human). The assay can be described thus: BLI (Octet QK), biotinylated pMHC on streptavidin sensor, BsAb 10 ug/mL. For orientation: BLI is a label-free optical method that tracks binding on a fibre tip over time.
For assay [15], the target named is biotinylated recombinant ESO157/HLA-A*02:06 complex (human). The description is as above.

B1: phage clone #35, anti-ESO157/HLA-A*02:01 scFv displayed on phage (scFv, V domains shown)
VH: QVQLVQSGAEVKKPGSSVKVSCKASGDTFSSYSISWVRQAPGQGLEWMGRIIPILGIANYAQKYQGRVTLSADKSTSTSYMELNSLRSEDTAVYYCARDWSYSIDYWGQGTLVTVSS
VL: QSVVTQPPSVSAAPGQKVTISCSGSSSNIGNNYVSWYQQLPGTAPKLLIYDNNKRPSGIPDRFSGSKSGTSATLGITGLQTGDEADYYCGTWDSSLSAWVFGGGTKLTVLG
notes: also called parental phage clone #35
Turning to B1, the MFI in [1] came to 17500; in assay [2], 42400; in [3] it was 10200; in assay [4], 155; in assay [5], 163; in [6], 419. The MFI was 17.6 in assay [7] and 13.4 in assay [8].

B2: phage clone 35-20, affinity maturation variant of clone #35 (scFv, V domains shown)
VH: QVHLVQSGAEVKKPGSSVKVSCKASGDTFSSYYISWVRQAPGQGLEWMGRIIPILGIANYAQKYQGRVTLSADKSTSTSYMELNSLRSEDTAVYYCARDWSYSIDYWGQGTLVTVSS
VL: QSVVTQPPSVSAAPGQKVTISCSGSSSNIGNNYVSWYQQLPGTAPKLLIYDNNKRPSGIPDRFSGSKSGTSATLGITGLQTGDEADYYCGTWDSSLSAWVFGGGTKLTVL
B2: the MFI turned out to be 21 in assay [9], 20.8 in assay [10], 20.6 in assay [11] and 19 in assay [8].

B3: phage clone 35-16, affinity maturation variant of clone #35 (scFv, V domains shown)
VH: QVQLVQSGAEVKKPGSSVKVSCKASEDTFSSYYISWVRQAPGQGLEWMGRIIPTLGIANYAQKYQGRVTLSADKSTSTSYMELNSLRSEDTAVYYCARDWSYSIDYWGQGTLVTVSS
VL: QSVVTQPPSVSAAPGQKVTISCSGSSSNIGNNYVSWYQQLPGTAPKLLIYDNNKRPSGIPGRFSGSKSGTSATLGITGLQTGDEADYYCGTWDSSLSAWVFGGGTKLTVLG
B3: the MFI was determined as 18.7 in assay [10], 19.3 in assay [11] and 18.7 in assay [8].

B4: phage clone 35-19, affinity maturation variant of clone #35 (scFv, V domains shown)
VH: QEQLVQSGAEVKKPGSSVKVSCKASGDTFSSYYISWVRQAPGQGLEWMGRIIPILGIANYAQKYQGRVTLSADKSTSTSYMELNSLRSEDTAVYYCARDWSYSIDYWGQGTLVTVSS
VL: QSVVTQPPSVSAAPGQKVTISCSGSISNIGNNYVSWYQQLPGTAPKLLIYDNNMRPSGIPDRFSGSKSGTSATLGITGLQTGDEADYYCGTWDSSLSAWVFGGGTKLTVLG
notes: also called variant 35-19
Consider B4, for which the MFI is 20.7 in [9]; 21.9 in assay [7]; 21.7 in [10]; 21.6 in assay [11]; 60.2 in [8].

B5: phage clone 35-2, affinity maturation variant of clone #35 (scFv, V domains shown)
VH: QVQLVQSGAEVKKPGSSVKVSCKASGDTFSSYYISWVRQAPGQGLEWMGRIIPILGIANYAQKYQGRVTLSADKSTSTSYMELNSLRSEDTAVYYCARDWSYSIDYWGQGTLVTVSS
VL: QSVVTQPPSVSAAPGQKVTISCSGSSSNIGNNYVSWYQQLPGTAPKLLIYDNNERPSGIPDRFSGSKSGTSATLGITGLQTGDEADYYCGTWDSSLSAWVFGGGTKLTVLG
With B5, the MFI turned out to be 20.8 in assay [7], 21 in [11] and 18.8 in assay [8].

B6: phage clone 35-15, affinity maturation variant of clone #35 (scFv, V domains shown)
VH: QVQLVQSGAEVKKPGSSVKVSCKASGDTFSSYYISWVRQAPGQGLEWMGRIIPILGIANYAQKYQGRVTLSADKSTSTSYMELNSLSSEDTAVYYCALDWSYSIDYWGQGTLVTVSS
VL: QSVVTQPPSVSAAPGQKVTISCSGSSSNIGNNYVSWYQQLPGTAPKLLIYDNNKRPSGIPDRFSASKSGTSATLGITGLQTRDEADYYCGTWDSSLSAWVFGGGTKLTVLG
In the case of B6, the MFI in assay [9] came to 36.2; in assay [10], 35.4; in assay [11], 33.8; in assay [8] it was 31.8.

B7: phage clone 35-14, affinity maturation variant of clone #35 (scFv, V domains shown)
VH: QVQLVQSGAEVKKPGSSVKVSCKASGDTFSSYYISWVRQAPGQGLEWMGRIIPILGIANYAQKYQGRVTLSADKSTSTSYMELNSLRSEDTAVYYCAREWSYSIDYWGQGTLVTVSS
VL: QSVVTQPPSVSAAPGQKVTISCSGSSSNIGNNYVSWYQQLPGTAPELLIYDNNKRPSGIPDRFSGSKSGTSATLGITGLQTGDEADYYCGTWDSSLSAWVFGGGTKLTVL
Take B7: the MFI in assay [9] stood at 20.8; in assay [7], 19.8; in [10], 20; in assay [11], 19.5; in assay [8], 18.8.

B8: phage clone 35-8, affinity maturation variant of clone #35 (scFv, V domains shown)
VH: QVPLVQSGAEVKKPGSSVKVSCKASGDTFSSYYISWVRQAPGQGLEWMGRIIPILGIANYAQKYQGRVTLSADKSTSTSYMELNNLRSEDTAVYYCARDWSYSIDYWGQGTLVTVSS
VL: QSVVTQPPSVSAAPGQKVTISCSGSSSNIGNNYVSWYQQLPGTAPKLLIYDNNKRPSGIPDRFSGSKSGTSATLGITGLQTGDEADYYCGTWDSSLSAWVFGGGTKLTVL
On to B8, for which the figures for the MFI in assay [7], in assay [11] and in [8] were 18.7, 19.6 and 17.8, respectively.

B9: phage clone 35-3, affinity maturation variant of clone #35 (scFv, V domains shown)
VH: QVQLVQSGAEVKKPGSSVKVSCKASGDTFSSYYISWVRQAPGQGLEWMGRIIPILGIANYAQKYQGRVTLSADKSTSTSYMELNSLRSEDTAVYYCAREWSYSIDYWGQGTLVTVSS
VL: QSVVTQPPSVSAAPGQKVTISCSGSSSNIGNNYVSWYQQLPGTAPKLLIYDNNKRPSGIPDRFSGSKSGTSATLGITGLRTGDEADYYCGTWDSSLSAWVFGGGTKLTVLG
Regarding B9, the MFI in assay [9] was 18.8; in [7] it was 18.4; in [10], 18.9; in assay [11] it was 19; in assay [8], 18.5.

B10: phage clone 35-12, affinity maturation variant of clone #35 (scFv, V domains shown)
VH: QVPLVQSGAEVKKPGSSVRVSCKASGDTFSNYSISWVRQAPGQGLEWMGRIIPILGIANYAQKYQGRVTLSADKSTSTSYMELNSLRSEDTAVYYCARDWSYSIDYWGQGTLVTVSS
VL: QSVVTQPPSVSAAPGQKVTISCSGSSSNIGNNYVSWYQQLPGTAPKLLIYDNNKRPSGIPDRFSGSKSGTSTTLGITGLQTGDEADYYCGTWDSSLSAWVFGGGTKLTVLG
In the case of B10, the MFI in [9] was 19.3; in [7], 19.2; in [10], 18.6; in [11], 18.7; in assay [8] it was 17.7.

B11: phage clone #146, anti-ESO157/HLA-A*02:01 scFv displayed on phage (scFv, V domains shown)
VH: EVQLVQSGAEVKKPGASVKVSCKVSGYTLTDLPMHWVRQAPGKGLEWMGGFDPEDGEIIYAQKFQGRVTMTEDTFTDTAYVELSSLRSEDTAVYYCARYVPYVSYSDSWGQGTLVTVSS
VL: not shown
For B11, the MFI worked out at 132 in assay [12]; 9300 in assay [2]; 181 in assay [3]; 3200 in [4]; 180 in [5]; 333 in assay [6]. In assay [13], this molecule had an MFI of 18600. In the assay with Bio-C9V mutant, the binding result is “binds”.

B12: ESO157 BsAb #116 (anti-ESO157/HLA-A*02:01 scFv x anti-human CD3epsilon scFv, single chain) (bispecific antibody)
chain: QSVLTQPPSVSAAPGQKVTISCSGSSSNIGNNYVSWYQQLPGTAPKLLIYDNNKRPSGIPDRFSGSKSGTSATLGITGLQTGDEADYYCGTWDSSLSAEVFGTGTKVTVLGSRGGGGSGGGGSGGGGSLEMAQVQLVQSGPEVKKPGASMKVSCKASGYTFTKYGISWVRQAPGQGLEWMGWISADSGKTSYAQNLQGRVSLTIDTSTATAYMELRSLRSDDTAVYYCARDDDSWGQGTLVTVSS
One may read the Kd as the equilibrium constant for the complex coming apart. For B12, the Kd was found to be 1.8 nM in assay [14] and 0.8 nM in assay [15].

B13: phage clone #76, anti-ESO157/HLA-A*02:01 scFv displayed on phage (scFv, V domains shown)
VH: EVQLVQSGAEVKKPGSSVKVSCKASGGTFSSYAISWVRQAPGQGLEWMGGIIPIFGTANYAQKFQGRVTITADESTSTAYMELSSLRSEDTAVYYCARYDSYVYDEWGQGTLVTVSS
VL: QSVVTQPPSLSGAPGQRVTISCNGSGSNIGAGYDVHWYQQLPGTAPKLLIYGNSNRPSGVPDRFSGSKSGTSASLAITGLQAEDEADYYCQSYDSSLSGWGIFGGGTKLTVLG
Turning to B13, the MFI was 131 in assay [12]; 7460 in assay [1]; 14600 in assay [2]; 42900 in assay [3]; 191 in [4]; 160 in [5]. Further, the MFI in [6] was determined as 6200; in assay [13], 12700. For the same molecule, the binding result in the assay with Bio-C9V mutant was “binds”.

For the origin of these results see US20190382504A1 (EUREKA THERAPEUTICS, published 2019).
